Experimental data from article PMC3657149, “Mig6 Is a Sensor of EGF Receptor Inactivation that Directly Activates c-Abl to Induce Apoptosis during Epithelial Homeostasis” (Developmental Cell, 2012).

Target: immunopurified Abl (UniProt P00519-2 1-1149)
Test: cell-based or functional assay

Sequence of immunopurified Abl (P00519 other isoform, or with tags, fused parts or gaps): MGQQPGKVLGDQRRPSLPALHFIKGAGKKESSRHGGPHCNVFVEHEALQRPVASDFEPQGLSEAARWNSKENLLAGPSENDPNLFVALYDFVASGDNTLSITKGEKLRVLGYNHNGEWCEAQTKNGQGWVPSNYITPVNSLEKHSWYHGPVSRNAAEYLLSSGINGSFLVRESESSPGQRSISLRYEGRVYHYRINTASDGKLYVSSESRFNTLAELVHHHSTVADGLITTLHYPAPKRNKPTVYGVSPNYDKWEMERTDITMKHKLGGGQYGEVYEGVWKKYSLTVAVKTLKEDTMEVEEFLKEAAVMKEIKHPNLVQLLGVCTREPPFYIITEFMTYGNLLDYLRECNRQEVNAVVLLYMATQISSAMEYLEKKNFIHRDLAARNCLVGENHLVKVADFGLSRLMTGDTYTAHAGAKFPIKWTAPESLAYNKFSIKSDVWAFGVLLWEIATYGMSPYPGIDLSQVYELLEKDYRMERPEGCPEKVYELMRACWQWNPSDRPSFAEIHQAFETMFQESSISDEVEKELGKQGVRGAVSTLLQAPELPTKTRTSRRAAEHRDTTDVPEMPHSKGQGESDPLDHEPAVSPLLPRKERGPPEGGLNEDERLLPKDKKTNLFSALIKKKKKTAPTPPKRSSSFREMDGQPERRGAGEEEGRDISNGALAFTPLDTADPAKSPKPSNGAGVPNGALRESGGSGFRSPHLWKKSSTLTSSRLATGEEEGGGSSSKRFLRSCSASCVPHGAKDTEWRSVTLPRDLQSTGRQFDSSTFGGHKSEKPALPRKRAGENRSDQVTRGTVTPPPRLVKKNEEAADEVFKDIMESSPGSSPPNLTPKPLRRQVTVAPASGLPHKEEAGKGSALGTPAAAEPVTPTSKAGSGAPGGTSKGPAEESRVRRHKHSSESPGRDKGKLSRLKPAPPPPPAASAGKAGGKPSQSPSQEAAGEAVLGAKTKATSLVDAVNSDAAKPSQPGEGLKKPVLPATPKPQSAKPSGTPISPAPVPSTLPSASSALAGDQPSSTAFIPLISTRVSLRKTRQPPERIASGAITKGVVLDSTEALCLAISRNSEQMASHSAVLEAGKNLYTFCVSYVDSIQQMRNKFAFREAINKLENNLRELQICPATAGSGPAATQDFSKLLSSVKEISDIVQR

activation (phosphorylation) of immunopurified Abl in the presence of bacterially produced Mig6: 2.2 fold
B1: bacterially produced Mig6 (natural protein, UniProt Q9UJM3 1-462, looked up)
chain: MSIAGVAAQEIRVPLKTGFLHNGRAMGNMRKTYWSSRSEFKNNFLNIDPITMAYSLNSSAQERLIPLGHASKSAPMNGHCFAENGPSQKSSLPPLLIPPSENLGPHEEDQVVCGFKKLTVNGVCASTPPLTPIKNSPSLFPCAPLCERGSRPLPPLPISEALSLDDTDCEVEFLTSSDTDFLLEDSTLSDFKYDVPGRRSFRGCGQINYAYFDTPAVSAADLSYVSDQNGGVPDPNPPPPQTHRRLRRSHSGPAGSFNKPAIRISNCCIHRASPNSDEDKPEVPPRVPIPPRPVKPDYRRWSAEVTSSTYSDEDRPPKVPPREPLSPSNSRTPSPKSLPSYLNGVMPPTQSFAPDPKYVSSKALQRQNSEGSASKVPCILPIIENGKKVSSTHYYLLPERPPYLDKYEKFFREAEETNGGAQIQPLPADCGISSATEKPDSKTKMDLGGHVKRKHLSYVVSP
